Assay results published in the supplement of paper PMC10065799, “High-throughput profiling of sequence recognition by tyrosine kinases and SH2 domains using bacterial peptide display” (eLife, 2023).

Assays:
[1] = target: MERTK (UniProt Q12866); experiment: phosphorylation enrichment, bacterial display (enrichment ratio); higher = better substrate or ligand; peptides without Tyr show the background
[2] = target: EPHB2 (UniProt P29323); experiment: as above
[3] = target: FGFR3 (UniProt P22607); experiment: as above
[4] = target: FGFR1 (UniProt P11362); experiment: as above
Chain of FGFR1 (P11362 whole entry, looked up): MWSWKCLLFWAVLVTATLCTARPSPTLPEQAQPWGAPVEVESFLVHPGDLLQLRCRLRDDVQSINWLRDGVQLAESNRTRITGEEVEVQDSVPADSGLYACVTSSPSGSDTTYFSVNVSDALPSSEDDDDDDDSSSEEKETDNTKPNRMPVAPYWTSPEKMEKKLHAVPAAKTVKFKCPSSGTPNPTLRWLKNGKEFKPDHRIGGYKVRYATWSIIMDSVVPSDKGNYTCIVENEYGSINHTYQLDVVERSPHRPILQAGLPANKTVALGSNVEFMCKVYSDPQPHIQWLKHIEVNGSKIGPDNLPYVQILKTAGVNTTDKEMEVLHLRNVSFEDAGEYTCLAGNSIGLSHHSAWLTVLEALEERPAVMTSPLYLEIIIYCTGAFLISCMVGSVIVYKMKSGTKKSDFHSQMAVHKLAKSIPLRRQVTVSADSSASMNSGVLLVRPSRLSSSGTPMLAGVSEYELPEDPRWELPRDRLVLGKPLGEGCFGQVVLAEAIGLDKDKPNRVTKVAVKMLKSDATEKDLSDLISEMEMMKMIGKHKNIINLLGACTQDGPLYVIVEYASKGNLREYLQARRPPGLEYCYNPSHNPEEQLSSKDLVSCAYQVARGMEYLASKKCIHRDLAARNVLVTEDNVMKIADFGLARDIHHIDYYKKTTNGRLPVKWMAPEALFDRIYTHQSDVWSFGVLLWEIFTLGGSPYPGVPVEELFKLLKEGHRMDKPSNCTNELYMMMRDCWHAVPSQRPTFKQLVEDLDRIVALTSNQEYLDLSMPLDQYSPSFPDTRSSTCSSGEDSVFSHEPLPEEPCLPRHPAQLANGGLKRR

[5] = system: c-Abl (mouse); experiment: as above
[6] = target: Jak2 (UniProt O60674); experiment: as above
[7] = system: c-Src; experiment: as above
[8] = system: Fer (mouse); experiment: as above
[9] = target: Fyn (UniProt P06241); experiment: as above
Chain of Fyn (P06241 whole entry, looked up): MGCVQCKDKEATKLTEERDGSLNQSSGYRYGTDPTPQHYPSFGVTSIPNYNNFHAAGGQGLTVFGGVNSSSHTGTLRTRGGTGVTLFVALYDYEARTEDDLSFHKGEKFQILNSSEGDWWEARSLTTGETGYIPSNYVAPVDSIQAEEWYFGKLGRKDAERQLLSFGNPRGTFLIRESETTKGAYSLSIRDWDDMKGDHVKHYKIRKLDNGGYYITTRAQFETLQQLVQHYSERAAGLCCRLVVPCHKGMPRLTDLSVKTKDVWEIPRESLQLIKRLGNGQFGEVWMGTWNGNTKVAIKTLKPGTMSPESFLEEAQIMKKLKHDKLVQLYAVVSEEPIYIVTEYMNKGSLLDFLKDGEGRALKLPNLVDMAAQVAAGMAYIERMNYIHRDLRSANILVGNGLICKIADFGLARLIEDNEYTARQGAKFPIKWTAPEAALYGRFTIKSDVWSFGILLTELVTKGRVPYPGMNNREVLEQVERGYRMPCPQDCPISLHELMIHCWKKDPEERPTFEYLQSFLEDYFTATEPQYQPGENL

[10] = target: Hck (UniProt P08631); experiment: as above
Chain of Hck (P08631 whole entry, looked up): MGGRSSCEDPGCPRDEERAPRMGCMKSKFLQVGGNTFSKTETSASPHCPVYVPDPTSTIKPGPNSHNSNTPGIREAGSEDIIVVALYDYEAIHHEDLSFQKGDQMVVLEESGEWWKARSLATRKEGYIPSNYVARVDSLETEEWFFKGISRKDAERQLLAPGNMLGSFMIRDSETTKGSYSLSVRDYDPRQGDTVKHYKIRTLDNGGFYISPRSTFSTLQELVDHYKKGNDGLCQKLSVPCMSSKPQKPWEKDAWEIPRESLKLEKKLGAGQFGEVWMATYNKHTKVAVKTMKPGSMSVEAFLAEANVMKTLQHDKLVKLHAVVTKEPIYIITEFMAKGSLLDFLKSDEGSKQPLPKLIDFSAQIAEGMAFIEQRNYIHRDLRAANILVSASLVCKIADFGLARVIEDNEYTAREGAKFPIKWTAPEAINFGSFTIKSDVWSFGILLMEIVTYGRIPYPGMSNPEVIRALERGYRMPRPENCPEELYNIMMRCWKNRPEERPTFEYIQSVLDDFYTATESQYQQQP

[11] = target: Fes (UniProt P07332); experiment: as above
[12] = target: EPHB1 (UniProt P54762); experiment: as above
Chain of EPHB1 (P54762 whole entry, looked up): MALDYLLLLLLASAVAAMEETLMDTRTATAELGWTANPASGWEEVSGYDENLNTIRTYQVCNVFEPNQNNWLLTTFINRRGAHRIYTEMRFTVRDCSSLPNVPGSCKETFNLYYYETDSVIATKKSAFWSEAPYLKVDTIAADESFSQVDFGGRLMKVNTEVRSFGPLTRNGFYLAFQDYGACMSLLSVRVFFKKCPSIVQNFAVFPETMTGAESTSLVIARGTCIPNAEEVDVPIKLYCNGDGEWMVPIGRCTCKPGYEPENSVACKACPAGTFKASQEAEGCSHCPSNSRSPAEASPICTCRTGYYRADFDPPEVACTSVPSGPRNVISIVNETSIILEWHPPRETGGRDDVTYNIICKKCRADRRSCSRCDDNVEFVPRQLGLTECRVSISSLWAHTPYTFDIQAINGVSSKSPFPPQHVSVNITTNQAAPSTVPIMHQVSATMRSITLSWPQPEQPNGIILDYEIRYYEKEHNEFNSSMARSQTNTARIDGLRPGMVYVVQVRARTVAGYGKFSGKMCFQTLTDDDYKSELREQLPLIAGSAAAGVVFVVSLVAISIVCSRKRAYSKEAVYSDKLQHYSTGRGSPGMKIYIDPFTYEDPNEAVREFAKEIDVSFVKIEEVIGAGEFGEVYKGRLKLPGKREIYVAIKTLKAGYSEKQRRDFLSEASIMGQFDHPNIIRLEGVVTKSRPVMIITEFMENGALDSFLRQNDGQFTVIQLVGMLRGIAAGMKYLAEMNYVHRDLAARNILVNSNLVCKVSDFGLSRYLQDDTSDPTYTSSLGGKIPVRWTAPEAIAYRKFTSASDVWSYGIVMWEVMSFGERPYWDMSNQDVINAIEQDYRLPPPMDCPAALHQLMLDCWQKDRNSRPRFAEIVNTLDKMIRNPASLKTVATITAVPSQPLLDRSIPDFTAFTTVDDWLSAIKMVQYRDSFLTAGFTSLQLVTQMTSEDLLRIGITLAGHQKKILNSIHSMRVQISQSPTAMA

[13] = system: AncSZ; experiment: as above
[14] = target: c-Src SH2; experiment: SH2 binding enrichment of the phosphorylated peptide, bacterial display (enrichment ratio); higher = better substrate or ligand; peptides without Tyr show the background
[15] = target: Grb2 SH2 (UniProt P62993); experiment: as above
[16] = target: SHP2-C SH2; experiment: as above
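For SH2 binding enrichment of the phosphorylated peptide, bacterial display in this document: peptide library displayed on the E. coli surface as eCPX fusions, selected cells deep-sequenced, score is each peptide's frequency after selection divided by its frequency in the input.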
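For phosphorylation enrichment, bacterial display in this document: 11-residue human phosphosite peptides and single-mutation variants displayed on the E. coli surface, counted by deep sequencing, each peptide's frequency after selection divided by its frequency in the unselected input library; frequency after pTyr selection over input frequency; kinase dosed for 20-30% of maximal phosphorylation in three min.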

Chain of MERTK (Q12866 whole entry, looked up): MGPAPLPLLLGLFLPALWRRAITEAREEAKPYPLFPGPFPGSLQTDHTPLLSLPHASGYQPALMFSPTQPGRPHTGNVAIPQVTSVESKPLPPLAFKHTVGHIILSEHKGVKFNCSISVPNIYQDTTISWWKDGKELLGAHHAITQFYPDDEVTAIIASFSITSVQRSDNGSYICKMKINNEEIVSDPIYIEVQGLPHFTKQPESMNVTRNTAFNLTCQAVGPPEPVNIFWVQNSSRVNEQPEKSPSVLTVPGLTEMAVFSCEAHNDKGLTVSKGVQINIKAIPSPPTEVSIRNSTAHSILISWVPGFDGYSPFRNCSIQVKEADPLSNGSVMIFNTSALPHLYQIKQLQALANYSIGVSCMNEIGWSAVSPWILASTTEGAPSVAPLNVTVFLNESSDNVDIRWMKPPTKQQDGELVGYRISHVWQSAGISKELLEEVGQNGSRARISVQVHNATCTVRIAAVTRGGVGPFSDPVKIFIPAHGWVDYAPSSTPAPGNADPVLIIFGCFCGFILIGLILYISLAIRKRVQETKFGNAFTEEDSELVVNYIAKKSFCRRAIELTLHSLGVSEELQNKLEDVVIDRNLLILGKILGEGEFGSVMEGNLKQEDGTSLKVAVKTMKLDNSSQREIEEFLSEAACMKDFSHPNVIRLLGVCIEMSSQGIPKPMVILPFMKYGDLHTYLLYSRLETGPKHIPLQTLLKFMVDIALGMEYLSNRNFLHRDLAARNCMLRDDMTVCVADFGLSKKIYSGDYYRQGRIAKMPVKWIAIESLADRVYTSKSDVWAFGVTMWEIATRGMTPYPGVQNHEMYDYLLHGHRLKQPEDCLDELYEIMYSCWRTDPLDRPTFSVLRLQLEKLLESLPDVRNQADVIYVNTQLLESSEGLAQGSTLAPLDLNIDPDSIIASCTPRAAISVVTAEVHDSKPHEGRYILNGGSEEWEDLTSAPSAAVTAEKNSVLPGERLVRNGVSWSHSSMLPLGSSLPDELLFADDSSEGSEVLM
Chain of EPHB2 (P29323 whole entry, looked up): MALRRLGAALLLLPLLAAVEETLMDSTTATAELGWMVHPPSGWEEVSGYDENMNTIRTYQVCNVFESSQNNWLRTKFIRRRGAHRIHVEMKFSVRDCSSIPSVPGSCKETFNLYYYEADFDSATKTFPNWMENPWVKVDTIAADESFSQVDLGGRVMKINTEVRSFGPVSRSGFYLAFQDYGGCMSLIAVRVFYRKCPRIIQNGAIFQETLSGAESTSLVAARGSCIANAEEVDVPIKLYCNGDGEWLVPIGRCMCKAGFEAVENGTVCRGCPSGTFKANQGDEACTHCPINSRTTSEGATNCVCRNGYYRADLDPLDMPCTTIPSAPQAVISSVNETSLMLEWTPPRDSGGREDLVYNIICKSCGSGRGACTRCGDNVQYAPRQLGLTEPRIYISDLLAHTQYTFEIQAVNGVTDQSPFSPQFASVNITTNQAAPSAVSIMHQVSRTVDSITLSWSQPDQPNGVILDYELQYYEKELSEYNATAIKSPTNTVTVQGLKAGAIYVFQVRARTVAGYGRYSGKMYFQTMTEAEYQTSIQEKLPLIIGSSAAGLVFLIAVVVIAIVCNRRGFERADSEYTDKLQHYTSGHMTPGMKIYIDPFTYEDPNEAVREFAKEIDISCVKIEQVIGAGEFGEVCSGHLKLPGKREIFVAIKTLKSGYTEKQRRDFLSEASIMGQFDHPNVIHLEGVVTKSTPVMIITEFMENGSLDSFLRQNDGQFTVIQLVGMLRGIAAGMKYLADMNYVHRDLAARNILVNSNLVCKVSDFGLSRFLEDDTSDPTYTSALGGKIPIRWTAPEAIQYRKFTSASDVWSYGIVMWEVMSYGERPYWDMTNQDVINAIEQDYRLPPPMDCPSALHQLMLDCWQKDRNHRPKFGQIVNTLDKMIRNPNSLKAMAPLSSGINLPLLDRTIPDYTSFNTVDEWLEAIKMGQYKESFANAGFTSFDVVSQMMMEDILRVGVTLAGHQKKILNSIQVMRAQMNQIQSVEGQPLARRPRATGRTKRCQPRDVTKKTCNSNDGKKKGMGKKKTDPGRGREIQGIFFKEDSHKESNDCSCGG

Sequence	phosphorylation enrichment [1]	phosphorylation enrichment [2]	phosphorylation enrichment [3]	phosphorylation enrichment [4]	phosphorylation enrichment [5]	phosphorylation enrichment [6]	phosphorylation enrichment [7]	phosphorylation enrichment [8]	phosphorylation enrichment [9]	phosphorylation enrichment [10]	phosphorylation enrichment [11]	phosphorylation enrichment [12]	phosphorylation enrichment [13]	SH2 binding enrichment [14]	SH2 binding enrichment [15]	SH2 binding enrichment [16]
AGGTRYRFVSQ [UCN3_Y95_R91G_YF]	0.363	0.272	0.377	0.461	0.576	0.465	0.393	0.386	0.536	0.338	0.43	0.397	0.426	0.489	0.849	0.641
GHNDVYILEHV [GRIN2A_Y1423_S1425L]	0.378	0.518	0.594	0.43	0.54	0.668	2.94	0.567	4.4	1.04	1.03	0.452	0.861	0.48	0.717	0.755
FHNSEYGELSE [FLT4_Y1337_Y1333H]	0.352	0.504	0.738	0.569	0.806	1.05	0.849	0.473	1.1	0.724	1.23	0.613	1.18	0.452	0.893	0.992
YQSKHYACIRQ [TIMP3_Y182]	0.534	0.451	0.45	0.52	0.648	0.626	0.406	0.554	0.418	0.55	0.762	0.462	0.673	2.08	1.21	6.64
PELINCHQHNS [BTK_Y361_Y361C]	0.712	0.9	0.7	0.682	0.876	0.971	0.69	0.56	0.297	0.544	1.04	0.676	0.938	0.641	1.01	0.919
ELAKFYKLHHI [AK7_Y391_N389K_YF]	0.536	0.452	0.531	0.453	0.621	0.645	0.505	0.462	0.566	0.501	0.762	0.547	0.65	0.414	0.646	0.747
NGSFRYVIISQ [LRP1B_Y1988]	0.448	0.581	0.71	0.603	0.727	0.958	0.422	0.513	0.528	0.657	1.25	0.599	1.12	2.17	1.17	5.12
AKIDGYITSYR	0.415	0.51	0.556	0.469	0.565	0.558	0.417	0.338	0.433	0.407	0.763	0.52	0.809	0.501	0.815	0.739
FLAVEYHKPHI [IDS_Y225_G224E]	0.302	0.459	0.515	0.393	1.6	1.05	0.387	0.354	0.337	0.38	0.814	0.417	0.779	0.925	1.32	0.653
ADSLRYIFPKL [EIF2B3_Y92_YF]	0.459	0.381	0.497	0.398	0.566	0.64	0.457	0.31	0.474	0.413	0.681	0.43	0.552	0.667	0.966	1.41
QNTGNYYDLYG [PTPN11_Y62_D61N]	13.2	28.7	20.6	22.8	1.28	2.99	5.18	3.81	9.62	8.01	1.65	30.6	2.38	3.3	0.851	0.898
ENRKYYMDLKE [PURA_Y156]	0.466	0.473	0.573	0.474	0.588	0.734	0.331	0.445	0.418	0.543	0.912	0.563	0.733	0.874	0.761	0.657
SFKNKYGMVAQ [APOB_Y276_YF]	0.341	0.354	0.39	0.335	0.465	0.43	0.375	0.335	0.353	0.354	0.574	0.302	0.42	0.455	0.934	0.543
LYSINYLHFGD [KDM4C_Y201_E206D]	12.8	12.1	3.85	5.82	1.73	1.47	3.68	15.8	4.87	4.59	1.84	12.7	1.99	1.2	1.69	2.45
ESMLRYEVFGG [STOX1_Y607_YF]	1.41	0.471	0.641	0.415	0.956	1.09	1.04	0.386	0.592	0.7	0.993	0.631	1.12	3.51	0.76	0.58
DEDEEYEYMNR [ERBB3_Y1197]	0.487	0.712	0.62	0.511	0.668	1.19	0.54	0.556	0.523	0.567	1.23	0.587	1.38	0.634	1.02	0.926
LWPIWYRCHRP [MRGPRX1_Y130]	0.804	0.893	1.02	1.04	1.15	1.17	0.466	0.702	0.798	0.699	1.63	0.721	1.86	0.416	1.09	1.06
QGLRLYRPHLP [BTK_Y617_A622P]	0.512	0.568	0.408	0.48	0.712	0.967	0.419	0.606	0.401	0.522	0.857	0.444	0.772	0.781	0.816	1.34
NYYDTCIKTCL [IQGAP2_Y1445_Y1445C]	5.87	2.32	5.45	7.57	0.894	1.17	1.16	1.05	1.52	1.51	1.07	7.47	1.3	3.21	0.856	0.706
GYEEAYSVFKK [PAFAH1B1_Y28]	0.654	0.605	0.681	0.491	1.96	0.754	4.68	0.339	2.37	4.07	0.947	0.498	1.35	2.54	0.831	1.25
NHYKIYNLYAE [PTEN_Y68_C71Y]	0.461	0.641	0.541	0.461	0.56	0.664	2.43	0.481	2.14	2.54	0.723	0.455	0.749	0.675	0.862	0.698
LHSDHYSPSGR [TMPRSS12_Y23_Y19H]	0.617	0.672	0.871	0.485	0.569	0.414	0.503	0.746	0.778	0.851	0.585	0.431	1.79	0.637	0.995	0.557
LIHLHYIRRDY [BBS4_Y43_K46R]	0.524	0.526	0.759	0.417	0.524	0.562	0.388	0.41	0.389	0.47	0.773	0.334	0.952	0.763	1.52	1.17
DRLAVYIDRVS [LMNA_Y45_R50S]	0.33	0.5	0.638	0.463	0.351	0.725	0.311	0.397	0.428	0.503	0.953	0.472	0.881	0.58	0.807	0.589
SSEFHYVGGFF [CTSC_Y347_YF]	0.428	0.532	0.813	0.572	0.897	0.904	0.707	0.558	0.516	0.544	1.16	0.646	0.949	0.376	0.688	0.607
SDFSSYARTSI [TERT_Y949_YF]	0.477	0.625	0.613	0.514	0.55	0.798	0.506	0.56	0.488	0.453	0.834	0.546	0.877	0.586	0.7	0.805
QDEPTYARSSK [PEAK1_Y616_H611Q]	0.513	0.498	0.508	0.603	0.738	0.685	0.661	0.466	0.554	0.838	0.869	0.389	0.787	0.561	0.816	0.69
IFLADCRIMEG [ALOX12B_Y318_Y318C_YF]	0.5	0.664	1.02	0.654	0.894	1.2	0.525	0.594	0.579	0.662	1.48	0.803	1.33	0.461	0.886	0.62
LNPDGYEKAYE [CPXM2_Y427]	0.364	0.816	0.789	0.633	0.773	2.41	0.478	0.365	0.797	0.489	1.53	0.696	1.12	4.86	0.93	0.729
